In assay [1] the target is T1, recombinant chimpanzee PSMA extracellular domain (ECD) protein (Pan troglodytes, UniProt Q04609 44-750 (human entry)).
T1 construct: also called Chimp PSMA ECD; PSMG8
T1 chain: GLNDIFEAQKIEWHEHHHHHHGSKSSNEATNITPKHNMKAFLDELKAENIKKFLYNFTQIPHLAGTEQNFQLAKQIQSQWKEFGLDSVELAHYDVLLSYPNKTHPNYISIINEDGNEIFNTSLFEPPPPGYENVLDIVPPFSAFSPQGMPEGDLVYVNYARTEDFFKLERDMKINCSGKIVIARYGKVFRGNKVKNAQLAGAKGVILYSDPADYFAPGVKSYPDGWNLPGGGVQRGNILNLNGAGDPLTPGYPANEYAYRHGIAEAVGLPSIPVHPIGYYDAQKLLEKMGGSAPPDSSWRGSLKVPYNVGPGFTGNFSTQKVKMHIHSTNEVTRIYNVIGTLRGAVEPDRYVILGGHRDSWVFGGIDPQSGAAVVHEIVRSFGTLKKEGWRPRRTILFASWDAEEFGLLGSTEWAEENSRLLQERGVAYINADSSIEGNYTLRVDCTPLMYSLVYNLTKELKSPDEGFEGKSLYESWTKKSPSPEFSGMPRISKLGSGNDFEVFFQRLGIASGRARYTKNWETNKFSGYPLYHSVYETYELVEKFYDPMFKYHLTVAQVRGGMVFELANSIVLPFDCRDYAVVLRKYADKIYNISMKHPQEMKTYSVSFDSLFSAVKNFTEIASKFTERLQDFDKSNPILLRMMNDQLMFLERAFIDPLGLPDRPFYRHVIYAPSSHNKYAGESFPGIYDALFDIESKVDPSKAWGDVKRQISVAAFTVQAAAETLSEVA
Kind of assay: SPR ProteOn, bsAb captured by anti-Fc. The procedure: The interactions of PSMA×CD3 bispecific mAbs with target (recombinant Chimp, PSMA) were studied by Surface Plasmon Resonance (SPR) using a ProteOn XPR36 system (BioRad). […] Approximately 4400 RU (response units) of anti-Human IgG Fc antibodies were immobilized. The kinetic experiments were performed at 25° C. in running buffer (DPBS+0.03% P20+100 μg/ml BSA). […] The association phase was monitored for 3 minutes at 50 μL/min, then followed by 15 minutes of buffer flow (dissociation phase). The chip surface was regenerated with two 18 second pulses of 100 mM Phosphoric acid (H₃PO₄, Sigma, cat #7961) at 100 μL/min.
The collected data were processed using ProteOn Manager software. First, the data was corrected for background using inter-spots. Then, double reference subtraction of the data was performed by using the buffer injection for analyte injections. The kinetic analysis of the data was performed using a Langmuir 1:1 binding model.

Assay [2] concerns the target T2, Cynomolgous monkey PSMA, full length (Macaca fascicularis, UniProt Q04609 1-750 (human entry)).
T2 construct: On transfected HEK293F cells; also called cyno PSMA; EHH56646.1
T2 chain: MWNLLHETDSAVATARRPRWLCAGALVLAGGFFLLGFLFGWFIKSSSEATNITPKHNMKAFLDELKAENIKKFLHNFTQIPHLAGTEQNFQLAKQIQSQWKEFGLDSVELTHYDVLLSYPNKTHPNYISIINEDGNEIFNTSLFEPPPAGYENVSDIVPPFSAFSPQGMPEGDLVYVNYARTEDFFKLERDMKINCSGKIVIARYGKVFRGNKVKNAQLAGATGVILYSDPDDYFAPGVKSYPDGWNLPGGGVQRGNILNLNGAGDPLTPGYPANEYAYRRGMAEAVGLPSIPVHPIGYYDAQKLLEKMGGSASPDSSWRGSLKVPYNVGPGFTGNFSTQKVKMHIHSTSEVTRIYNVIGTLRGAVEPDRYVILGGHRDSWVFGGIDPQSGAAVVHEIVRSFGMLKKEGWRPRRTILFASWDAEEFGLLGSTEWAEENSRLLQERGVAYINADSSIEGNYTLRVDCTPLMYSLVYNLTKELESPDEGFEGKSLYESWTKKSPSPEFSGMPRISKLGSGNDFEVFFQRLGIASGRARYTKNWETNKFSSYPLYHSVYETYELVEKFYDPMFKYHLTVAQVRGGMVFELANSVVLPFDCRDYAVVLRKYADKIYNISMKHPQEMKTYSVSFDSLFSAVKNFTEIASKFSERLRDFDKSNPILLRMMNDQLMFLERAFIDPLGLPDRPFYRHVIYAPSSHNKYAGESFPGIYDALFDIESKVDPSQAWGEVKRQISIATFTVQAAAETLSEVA
Nature of the assay: FACS, whole cell binding, cyno PSMA HEK; calculated EC50. How it is done:
(§1) PSMA×CD3 bispecific antibodies were tested for binding to PSMA positive cell lines LNCAP, human PSMA-HEK, Chimpanzee-PSMA-HEK and Cynomolgous monkey PSMA-HEK. To assess the binding capabilities of the PSMA bispecific antibodies, the cell-binding assay was utilized (described previously). Briefly, PSMA expressing tumor cells are bound by bispecific antibodies at known concentrations and the bound antibody is detected by an anti-human kappa light chain PE conjugated detection reagent (Invitrogen). The Mean Fluorescents Intensity (MFI) is the measure of bound bispecific antibody. The MFI is converted to a relative EC₅₀. EC₅₀ is a commonly used dose-response curve, where the half maximal effective concentration or the EC₅₀ point is defined as the inflection point of the curve. EC₅₀ s were determined by measuring cell bound bispecific and known concentrations. […] The dose response curves were then diluted down to that of background or no bispecific binding. The inflection point of this curve reflects the EC₅₀ point. The calculated EC₅₀ is determined by taking the ug/ml amount of bispecific antibody at the EC₅₀ point and converting it to a molarity value based on the MW of the bispecific antibody. Bispecific antibodies were normalized for protein concentration and then incubated with the same number of cells expressing either human or cyno PSMA. The MFI at each concentration was collected by flow cytometry and plotted as a function of concentration. Data was transformed via log 10 and then plotted. Nonlinear regression of binding curves was done to determine EC₅₀ s. These relative values were used for ranking PSMA binding to target cells.

Assay [3] addresses T3, human PSMA (prostate specific membrane antigen), full length (human, UniProt Q04609 1-750).
T3 construct: On LNCaP or C4-2B cells (endogenous) or transduced HEK293F cells; also called FOLH1_HUMAN; hPSMA
Kind of assay: FACS, whole cell binding, LNCaP; calculated EC50. The procedure: as §1

B1: PS3B23 (bispecific antibody, human IgG4 S228P, kappa, lambda, F234A L235A)
heavy 1: not shown
light 1: not shown
heavy 2: EVQLVESGGGLVQPGGSLRLSCAASGFTFNTYAMNWVRQAPGKGLEWVARIRSKYNNYATYYAASVKGRFTISRDDSKNSLYLQMNSLKTEDTAVYYCARHGNFGNSYVSWFAYWGQGTLVTVSSASTKGPSVFPLAPCSRSTSESTAALGCLVKDYFPEPVTVSWNSGALTSGVHTFPAVLQSSGLYSLSSVVTVPSSSLGTKTYTCNVDHKPSNTKVDKRVESKYGPPCPPCPAPEAAGGPSVFLFPPKPKDTLMISRTPEVTCVVVDVSQEDPEVQFNWYVDGVEVHNAKTKPREEQFNSTYRVVSVLTVLHQDWLNGKEYKCKVSNKGLPSSIEKTISKAKGQPREPQVYTLPPSQEEMTKNQVSLTCLVKGFYPSDIAVEWESNGQPENNYKTTPPVLDSDGSFLLYSKLTVDKSRWQEGNVFSCSVMHEALHNHYTQKSLSLSLGK
light 2: QTVVTQEPSLTVSPGGTVTLTCRSSTGAVTTSNYANWVQQKPGQAPRGLIGGTNKRAPGTPARFSGSLLGGKAALTLSGVQPEDEAEYYCALWYSNLWVFGGGTKLTVLGQPKAAPSVTLFPPSSEELQANKATLVCLISDFYPGAVTVAWKADSSPVKAGVETTTPSKQSNNKYAASSYLSLTPEQWKSHRSYSCQVTHEGSTVEKTVAPTECS
notes: IgG4 PAA; PSMA arm chains first, then CD3 arm (F405L, R409K); also called PSMB123 x CD3B219
With B1, in assay [1], the Kd came out at 1.8 nM, the koff is 0.00176 s⁻¹ and the kon was 989000 M⁻¹ s⁻¹. Besides, the EC50 in assay [2] is 26.4 nM.

B2: PS3B19 (bispecific antibody, human IgG4 S228P, kappa, lambda, F234A L235A)
heavy 1: not shown
light 1: not shown
heavy 2: EVQLVESGGGLVQPGGSLRLSCAASGFTFNTYAMNWVRQAPGKGLEWVARIRSKYNNYATYYAASVKGRFTISRDDSKNSLYLQMNSLKTEDTAVYYCARHGNFGNSYVSWFAYWGQGTLVTVSSASTKGPSVFPLAPCSRSTSESTAALGCLVKDYFPEPVTVSWNSGALTSGVHTFPAVLQSSGLYSLSSVVTVPSSSLGTKTYTCNVDHKPSNTKVDKRVESKYGPPCPPCPAPEAAGGPSVFLFPPKPKDTLMISRTPEVTCVVVDVSQEDPEVQFNWYVDGVEVHNAKTKPREEQFNSTYRVVSVLTVLHQDWLNGKEYKCKVSNKGLPSSIEKTISKAKGQPREPQVYTLPPSQEEMTKNQVSLTCLVKGFYPSDIAVEWESNGQPENNYKTTPPVLDSDGSFLLYSKLTVDKSRWQEGNVFSCSVMHEALHNHYTQKSLSLSLGK
light 2: QTVVTQEPSLTVSPGGTVTLTCRSSTGAVTTSNYANWVQQKPGQAPRGLIGGTNKRAPGTPARFSGSLLGGKAALTLSGVQPEDEAEYYCALWYSNLWVFGGGTKLTVLGQPKAAPSVTLFPPSSEELQANKATLVCLISDFYPGAVTVAWKADSSPVKAGVETTTPSKQSNNKYAASSYLSLTPEQWKSHRSYSCQVTHEGSTVEKTVAPTECS
notes: IgG4 PAA; PSMA arm chains first, then CD3 arm (F405L, R409K); also called PSMB119 x CD3B219
For the molecule B2, in assay [1], the dissociation constant Kd amounted to 23.6 nM, the koff came to 0.000298 s⁻¹ and the kon was 12600 M⁻¹ s⁻¹. Also, the EC50 in assay [2] is 12.4 nM.

B3: PS3B22 (bispecific antibody, human IgG4 S228P, kappa, lambda, F234A L235A)
heavy 1: not shown
light 1: DIQMTQSPSSLSASVGDRVTITCRASQSIDRWLNWYQQKPGKAPKLLIYAASSLQSGVPSRFSGSGSGTDFTLTISSLQPEDFATYYCQQSPRYPLTFGQGTKVEIKRTVAAPSVFIFPPSDEQLKSGTASVVCLLNNFYPREAKVQWKVDNALQSGNSQESVTEQDSKDSTYSLSSTLTLSKADYEKHKVYACEVTHQGLSSPVTKSFNRGEC
heavy 2: EVQLVESGGGLVQPGGSLRLSCAASGFTFNTYAMNWVRQAPGKGLEWVARIRSKYNNYATYYAASVKGRFTISRDDSKNSLYLQMNSLKTEDTAVYYCARHGNFGNSYVSWFAYWGQGTLVTVSSASTKGPSVFPLAPCSRSTSESTAALGCLVKDYFPEPVTVSWNSGALTSGVHTFPAVLQSSGLYSLSSVVTVPSSSLGTKTYTCNVDHKPSNTKVDKRVESKYGPPCPPCPAPEAAGGPSVFLFPPKPKDTLMISRTPEVTCVVVDVSQEDPEVQFNWYVDGVEVHNAKTKPREEQFNSTYRVVSVLTVLHQDWLNGKEYKCKVSNKGLPSSIEKTISKAKGQPREPQVYTLPPSQEEMTKNQVSLTCLVKGFYPSDIAVEWESNGQPENNYKTTPPVLDSDGSFLLYSKLTVDKSRWQEGNVFSCSVMHEALHNHYTQKSLSLSLGK
light 2: QTVVTQEPSLTVSPGGTVTLTCRSSTGAVTTSNYANWVQQKPGQAPRGLIGGTNKRAPGTPARFSGSLLGGKAALTLSGVQPEDEAEYYCALWYSNLWVFGGGTKLTVLGQPKAAPSVTLFPPSSEELQANKATLVCLISDFYPGAVTVAWKADSSPVKAGVETTTPSKQSNNKYAASSYLSLTPEQWKSHRSYSCQVTHEGSTVEKTVAPTECS
notes: IgG4 PAA; PSMA arm chains first, then CD3 arm (F405L, R409K); also called PSMB122 x CD3B219; PSB22
For B3, in assay [1], the Kd was determined as 19 nM, the dissociation rate constant (koff) stood at 0.00124 s⁻¹ and the on-rate constant (kon) is 65100 M⁻¹ s⁻¹. Also, in assay [3], the EC50 is 18.3 nM. Further, in assay [2], the EC50 is 8 nM.

B4: PS3B24 (bispecific antibody, human IgG4 S228P, kappa, lambda, F234A L235A)
heavy 1: not shown
light 1: not shown
heavy 2: EVQLVESGGGLVQPGGSLRLSCAASGFTFNTYAMNWVRQAPGKGLEWVARIRSKYNNYATYYAASVKGRFTISRDDSKNSLYLQMNSLKTEDTAVYYCARHGNFGNSYVSWFAYWGQGTLVTVSSASTKGPSVFPLAPCSRSTSESTAALGCLVKDYFPEPVTVSWNSGALTSGVHTFPAVLQSSGLYSLSSVVTVPSSSLGTKTYTCNVDHKPSNTKVDKRVESKYGPPCPPCPAPEAAGGPSVFLFPPKPKDTLMISRTPEVTCVVVDVSQEDPEVQFNWYVDGVEVHNAKTKPREEQFNSTYRVVSVLTVLHQDWLNGKEYKCKVSNKGLPSSIEKTISKAKGQPREPQVYTLPPSQEEMTKNQVSLTCLVKGFYPSDIAVEWESNGQPENNYKTTPPVLDSDGSFLLYSKLTVDKSRWQEGNVFSCSVMHEALHNHYTQKSLSLSLGK
light 2: QTVVTQEPSLTVSPGGTVTLTCRSSTGAVTTSNYANWVQQKPGQAPRGLIGGTNKRAPGTPARFSGSLLGGKAALTLSGVQPEDEAEYYCALWYSNLWVFGGGTKLTVLGQPKAAPSVTLFPPSSEELQANKATLVCLISDFYPGAVTVAWKADSSPVKAGVETTTPSKQSNNKYAASSYLSLTPEQWKSHRSYSCQVTHEGSTVEKTVAPTECS
notes: IgG4 PAA; PSMA arm chains first, then CD3 arm (F405L, R409K); also called PSMB124 x CD3B219
Turning to B4, in assay [1], the Kd came to 40.3 nM, the koff worked out at 0.000252 s⁻¹ and the kon is 6260 M⁻¹ s⁻¹. Also, in assay [2], the EC50 was 128 nM.

One may read the Kd as the concentration at which binding is half-saturated. What is called koff is the rate constant with which the complex falls apart. As usually defined, the kon is the second-order rate constant of association. For orientation: EC50 means the midpoint of the concentration-response curve.

The values above are taken from patent US20200024360A1 (Janssen / Centocor, published 2020).
